From US20240209076A1 (KODIAK SCIENCES, published 2024)
Residue numbers refer to the chain shown, from its start. Numbers in names are those of the source.

B1: anti-IL-6 antibody, heavy chain variant II (M34W, G66D, I108V) / light chain variant IV (M32L, M50A, N52S, M88Q) (antibody, V domains shown)
VH: EVQLVESGGGLVQPGGSLRLSCAASGFTFSPFAWSWVRQAPGKGLEWVAKISPGGSWTYYSDTVTDRFTFSLDTSKSTAYLQMNSLRAEDTAVYYCARQLWGYYALDVWGQGTLVTVSS
VL: DIQLTQSPSSLSASVGDRVTITCSASISVSYLYWYQQKPGKAPKLLIYDASSLASGVPSRFSGSGSGTDFTLTISSLQPEDFATYYCQQWSGYPYTFGQGTKVEIK
notes: See note of m39; also called M34W, G66D, I108V/ M32L, M50A, N52S, M88Q; II/IV
B2: anti-IL-6 antibody, light chain M88A (heavy chain WT) (antibody, V domains shown)
VH: B1 VH with W34M, D66G, V108I
VL: B1 VL with L32M, A50M, S52N, Q88A
notes: See note of m2; also called WT / M88A
B3: anti-IL-6 antibody, light chain M50D (heavy chain WT) (antibody, V domains shown)
VH: B1 VH with W34M, D66G, V108I
VL: B1 VL with L32M, A50D, S52N, Q88M
notes: See note of m2; also called WT / M50D
B4: anti-IL-6 antibody, light chain M32V (heavy chain WT) (antibody, V domains shown)
VH: B1 VH with W34M, D66G, V108I
VL: B1 VL with L32V, A50M, S52N, Q88M
notes: See note of m2; also called WT / M32V
B5: anti-IL-6 antibody, light chain D49E (heavy chain WT) (antibody, V domains shown)
VH: B1 VH with W34M, D66G, V108I
VL: B1 VL with L32M, D49E, A50M, S52N, Q88M
notes: See note of m2; also called WT / D49E
B6: anti-IL-6 antibody, light chain T96L (heavy chain WT) (antibody, V domains shown)
VH: B1 VH with W34M, D66G, V108I
VL: B1 VL with L32M, A50M, S52N, Q88M, T96L
notes: See note of m2; also called WT / T96L
B7: anti-IL-6 antibody, light chain M88V (heavy chain WT) (antibody, V domains shown)
VH: B1 VH with W34M, D66G, V108I
VL: B1 VL with L32M, A50M, S52N, Q88V
notes: See note of m2; also called WT / M88V
B8: anti-IL-6 antibody, heavy chain variant II (M34W, G66D, I108V) / light chain variant V (M32L, M50D, M88Q) (antibody, V domains shown)
VH: B1 VH
VL: B1 VL with A50D, S52N
notes: See note of m39; also called M34W, G66D, I108V/ M32L, M50D, M88Q; II/V
B9: anti-IL-6 antibody, light chain T96V (heavy chain WT) (antibody, V domains shown)
VH: B1 VH with W34M, D66G, V108I
VL: B1 VL with L32M, A50M, S52N, Q88M, T96V
notes: See note of m2; also called WT / T96V
B10: dual inhibitor molecule A (VEGF Trap-AntiIL-6) (other)
heavy: SDTGRPFVEMYSEIPEIIHMTEGRELVIPCRVTSPNITVTLKKFPLDTLIPDGKRIIWDSRKGFIISNATYKEIGLLTCEATVNGHLYKTNYLTHRQTNTIIDVVLSPSHGIELSVGEKLVLNCTARTELNVGIDFNWEYPSSKHQHKKLVNRDLKTQSGSEMKKFLSTLTIDGVTRSDQGLYTCAASSGLMTKKNSTFVRVHEKGGGGSGGGGSEVQLVESGGGLVQPGGSLRLSCAASGFTFSPFAISWVRQAPGKGLEWVAKISPGGSWTYYSDTVTDRFTFSLDTSKSTAYLQMNSLRAEDTAVYYCARQLWGYYALDVWGQGTLVTVSSASTKGPSVFPLAPSSKSTSGGTAALGCLVKDYFPEPVTVSWNSGALTSGVHTFPAVLQSSGLYSLSSVVTVPSSSLGTQTYICNVNHKPSNTKVDKKVEPKSCDKTHTCPPCPAPEAAGAPSVFLFPPKPKDTLMISRTPEVTCVVVDVSHEDPEVKFNWYVDGVEVHNAKTKPREEQYNSTYRVVSVLTVLHQDWLNGKEYKCKVSNKALPAPIEKTISKAKGQPREPQVYTLPPSREEMTKNQVSLTCLVKGFYPSDIAVEWESNGQPENNYKTTPPVLDSDGSFFLYSKLTVDKSRWQQGNVFSCSVMHEALHNHYTQKSLSCSPGK
light: DIQLTQSPSSLSASVGDRVTITCSASISVSYLYWYQQKPGKAPKLLIYDDSSLASGVPSRFSGSGSGTDFTLTISSLQPEDFATYYCQQWSGYPYTFGQGTKVEIKRTVAAPSVFIFPPSDEQLKSGTASVVCLLNNFYPREAKVQWKVDNALQSGNSQESVTEQDSKDSTYSLSSTLTLSKADYEKHKVYACEVTHQGLSSPVTKSFNRGEC
B11: dual inhibitor molecule G (AntiIL-6-VEGF Trap) (other)
heavy: EVQLVESGGGLVQPGGSLRLSCAASGFTFSPFAISWVRQAPGKGLEWVAKISPGGSWTYYSDTVTDRFTFSLDTSKSTAYLQMNSLRAEDTAVYYCARQLWGYYALDVWGQGTLVTVSSASTKGPSVFPLAPSSKSTSGGTAALGCLVKDYFPEPVTVSWNSGALTSGVHTFPAVLQSSGLYSLSSVVTVPSSSLGTQTYICNVNHKPSNTKVDKKVEPKSCGGGGSGGGGSSDTGRPFVEMYSEIPEIIHMTEGRELVIPCRVTSPNITVTLKKFPLDTLIPDGKRIIWDSRKGFIISNATYKEIGLLTCEATVNGHLYKTNYLTHRQTNTIIDVVLSPSHGIELSVGEKLVLNCTARTELNVGIDFNWEYPSSKHQHKKLVNRDLKTQSGSEMKKFLSTLTIDGVTRSDQGLYTCAASSGLMTKKNSTFVRVHEKDKTHTCPPCPAPEAAGAPSVFLFPPKPKDTLMISRTPEVTCVVVDVSHEDPEVKFNWYVDGVEVHNAKTKPREEQYNSTYRVVSVLTVLHQDWLNGKEYKCKVSNKALPAPIEKTISKAKGQPREPQVYTLPPSREEMTKNQVSLTCLVKGFYPSDIAVEWESNGQPENNYKTTPPVLDSDGSFFLYSKLTVDKSRWQQGNVFSCSVMHEALHNHYTQKSLSCSPGK
light: B10 light
notes: Trap-antibody fusion, VEGF trap between the Fab region (VH variant I) and the Fc; light chain variant III
B12: dual inhibitor molecule E (VEGF Trap-AntiIL-6) (other)
heavy: B10 heavy with I249W
light: B10 light with D50A
notes: Trap-antibody fusion, VEGF trap at the N-terminus of the anti-IL-6 heavy chain (VH variant II); light chain variant IV
B13: dual inhibitor molecule B (VEGF Trap-AntiIL-6) (other)
heavy: B10 heavy
light: B10 light with D50A
notes: Trap-antibody fusion, VEGF trap at the N-terminus of the anti-IL-6 heavy chain (VH variant I); light chain variant IV
B14: dual inhibitor molecule D (VEGF Trap-AntiIL-6) (other)
heavy: B10 heavy with I249W
light: B10 light
notes: Trap-antibody fusion, VEGF trap at the N-terminus of the anti-IL-6 heavy chain (VH variant II); light chain variant III
B15: dual inhibitor molecule K (AntiIL-6-VEGF Trap) (other)
heavy: B11 heavy with I34W
light: B10 light with D50A
notes: Trap-antibody fusion, VEGF trap between the Fab region (VH variant II) and the Fc; light chain variant IV
B16: dual inhibitor molecule H (AntiIL-6-VEGF Trap) (other)
heavy: B11 heavy
light: B10 light with D50A
notes: Trap-antibody fusion, VEGF trap between the Fab region (VH variant I) and the Fc; light chain variant IV
B17: dual inhibitor molecule F (VEGF Trap-AntiIL-6) (other)
heavy: B10 heavy with I249W
light: B10 light with S52N
notes: Trap-antibody fusion, VEGF trap at the N-terminus of the anti-IL-6 heavy chain (VH variant II); light chain variant V
B18: dual inhibitor molecule I (AntiIL-6-VEGF Trap) (other)
heavy: B11 heavy
light: B10 light with S52N
notes: Trap-antibody fusion, VEGF trap between the Fab region (VH variant I) and the Fc; light chain variant V
B19: dual inhibitor molecule C (VEGF Trap-AntiIL-6) (other)
heavy: B10 heavy
light: B10 light with S52N
notes: Trap-antibody fusion, VEGF trap at the N-terminus of the anti-IL-6 heavy chain (VH variant I); light chain variant V
B20: dual inhibitor molecule J (AntiIL-6-VEGF Trap) (other)
heavy: B11 heavy with I34W
light: B10 light
notes: Trap-antibody fusion, VEGF trap between the Fab region (VH variant II) and the Fc; light chain variant III

What was measured:
[1] = target: T1, recombinant human IL-6 (human, UniProt P05231 30-212); experiment: SPR Biacore, purified Ab on Protein A chip, IL-6 analyte, 37 C
T1 construct: Bought protein
Experimental: (§1) Antibodies were captured on a Protein A chip (GE) by injecting 1:20 dilution of cell supernatant at 10 μL/min for 60 seconds. […] The sensor chip was regenerated by a 60 seconds injection of 10 mM Glycine pH 1.7 at flow rate of 50 μL/min. […] For this setup, 1 μg/mL of purified antibody was injected over a Protein A chip at 10 μL/min for 25-28 seconds. Data analysis for supernatant and purified samples were performed using BIAevaluation software (GE). All sensorgrams were double reference subtracted and fit using a 1:1 Langmuir binding model.

[2] = target: T1, recombinant human IL-6; experiment: SPR Biacore, supernatant Ab on Protein A chip, IL-6 analyte, 25 C
Experimental: as §1

[3] = target: T1, recombinant human IL-6; experiment: SPR Biacore, purified dual inhibitor on Protein A chip, IL-6 analyte, 37 C
[4] = target: T1, recombinant human IL-6; experiment: SPR Biacore, supernatant dual inhibitor on Protein A chip, IL-6 analyte, 25 C

T1 sequence (P05231 30-212 limits assumed): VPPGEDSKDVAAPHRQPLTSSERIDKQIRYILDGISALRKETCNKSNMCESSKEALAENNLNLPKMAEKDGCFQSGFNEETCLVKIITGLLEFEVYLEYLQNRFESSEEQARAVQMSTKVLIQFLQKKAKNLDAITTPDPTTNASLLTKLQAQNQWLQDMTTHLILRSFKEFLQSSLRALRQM

Row | Binder | Kd [1] | koff [1] | kon [1] | Kd [2] | koff [2] | kon [2] | Kd [3] | koff [3] | kon [3] | Kd [4] | koff [4] | kon [4]
1 | B1 | 0.615 nM | 0.000652 s⁻¹ | 1.08e+06 M⁻¹ s⁻¹ | 0.297 nM | 0.00117 s⁻¹ | 559000 M⁻¹ s⁻¹ |  |  |  |  |  | 
2 | B2 | 2.25 nM | 0.00132 s⁻¹ | 586000 M⁻¹ s⁻¹ | 0.282 nM | 0.000127 s⁻¹ | 451000 M⁻¹ s⁻¹ |  |  |  |  |  | 
3 | B3 | 0.311 nM | 0.000464 s⁻¹ | 1.49e+06 M⁻¹ s⁻¹ | 0.138 nM | 0.000112 s⁻¹ | 806000 M⁻¹ s⁻¹ |  |  |  |  |  | 
4 | B4 | 0.429 nM | 0.000369 s⁻¹ | 861000 M⁻¹ s⁻¹ | 0.23 nM | 0.000116 s⁻¹ | 505000 M⁻¹ s⁻¹ |  |  |  |  |  | 
5 | B5 | 0.624 nM | 0.000417 s⁻¹ | 668000 M⁻¹ s⁻¹ | 0.241 nM | 0.000111 s⁻¹ | 459000 M⁻¹ s⁻¹ |  |  |  |  |  | 
6 | B6 | 0.901 nM | 0.000795 s⁻¹ | 882000 M⁻¹ s⁻¹ | 0.259 nM | 0.000135 s⁻¹ | 520000 M⁻¹ s⁻¹ |  |  |  |  |  | 
7 | B7 | 0.713 nM | 0.000441 s⁻¹ | 619000 M⁻¹ s⁻¹ | 0.239 nM | 0.000107 s⁻¹ | 448000 M⁻¹ s⁻¹ |  |  |  |  |  | 
8 | B8 | 0.465 nM | 0.000627 s⁻¹ | 1.34e+06 M⁻¹ s⁻¹ | 0.231 nM | 0.000271 s⁻¹ | 700000 M⁻¹ s⁻¹ |  |  |  |  |  | 
9 | B9 | 0.695 nM | 0.000639 s⁻¹ | 921000 M⁻¹ s⁻¹ | 0.423 nM | 0.000192 s⁻¹ | 454000 M⁻¹ s⁻¹ |  |  |  |  |  | 
10 | B10 |  |  |  |  |  |  | 0.484 nM | 0.000538 s⁻¹ | 1.11e+06 M⁻¹ s⁻¹ | 0.589 nM | 0.000182 s⁻¹ | 309000 M⁻¹ s⁻¹
11 | B11 |  |  |  |  |  |  | 0.451 nM | 0.000567 s⁻¹ | 1.26e+06 M⁻¹ s⁻¹ | 0.589 nM | 0.000149 s⁻¹ | 252000 M⁻¹ s⁻¹
12 | B12 |  |  |  |  |  |  | 0.424 nM | 0.000459 s⁻¹ | 1.08e+06 M⁻¹ s⁻¹ | 0.299 nM | 0.000151 s⁻¹ | 504000 M⁻¹ s⁻¹
13 | B13 |  |  |  |  |  |  | 0.507 nM | 0.000536 s⁻¹ | 1.06e+06 M⁻¹ s⁻¹ | 0.305 nM | 0.000185 s⁻¹ | 605000 M⁻¹ s⁻¹
14 | B14 |  |  |  |  |  |  | 0.365 nM | 0.000447 s⁻¹ | 1.23e+06 M⁻¹ s⁻¹ | 0.253 nM | 0.000109 s⁻¹ | 433000 M⁻¹ s⁻¹
15 | B15 |  |  |  |  |  |  | 0.452 nM | 0.000579 s⁻¹ | 1.28e+06 M⁻¹ s⁻¹ | 0.282 nM | 0.000178 s⁻¹ | 629000 M⁻¹ s⁻¹
16 | B16 |  |  |  |  |  |  | 0.396 nM | 0.000529 s⁻¹ | 1.34e+06 M⁻¹ s⁻¹ | 0.356 nM | 0.000162 s⁻¹ | 454000 M⁻¹ s⁻¹
17 | B17 |  |  |  |  |  |  | 0.34 nM | 0.000446 s⁻¹ | 1.31e+06 M⁻¹ s⁻¹ | 0.225 nM | 0.000137 s⁻¹ | 611000 M⁻¹ s⁻¹
18 | B18 |  |  |  |  |  |  | 0.435 nM | 0.000499 s⁻¹ | 1.15e+06 M⁻¹ s⁻¹ | 0.679 nM | 0.000147 s⁻¹ | 217000 M⁻¹ s⁻¹
19 | B19 |  |  |  |  |  |  | 0.477 nM | 0.000481 s⁻¹ | 1.01e+06 M⁻¹ s⁻¹ | 0.394 nM | 0.00015 s⁻¹ | 379000 M⁻¹ s⁻¹
20 | B20 |  |  |  |  |  |  | 0.468 nM | 0.000664 s⁻¹ | 1.42e+06 M⁻¹ s⁻¹ | 0.28 nM | 0.000149 s⁻¹ | 534000 M⁻¹ s⁻¹
